Target: the molecule itself
Test: negative-stain transmission electron microscopy; protein incubated with unilamellar liposomes (1:1 POPC/chol), stained with 1% w/v uranyl acetate on a copper grid; membrane-bound oligomeric structures visualised

Row | Protein | binding result
1 | pneumolysin point mutant D205R (natural protein, Streptococcus pneumoniae, UniProt Q04IN8 1-471, looked up, pneumolysin (PLY), Streptococcus pneumoniae, with D205R in domain 1; also called PLY D205R; source: purified) MANKAVNDFILAMNYDKKKLLTHQGESIENRFIKEGNQLPDEFVVIERKKRSLSTNTSDISVTATNDSRLYPGALLVVDETLLENNPTLLAVDRAPMTYSIDLPGLASSDSFLQVEDPSNSSVRGAVNDLLAKWHQDYGQVNNVPARMQYEKITAHSMEQLKVKFGSDFEKTGNSLDIDFNSVHSGEKQIQIVNFKQIYYTVSVRAVKNPGDVFQDTVTVEDLKQRGISAERPLVYISSVAYGRQVYLKLETTSKSDEVEAAFEALIKGVKVAPQTEWKQILDNTEVKAVILGGDPSSGARVVTGKVDMVEDLIQEGSRFTADHPGLPISYTTSFLRDNVVATFQNSTDYVETKVTAYRNGDLLLDHSGAYVAQYYITWDELSYDHQGKEVLTPKAWDRNGQDLTAHFTTSIPLKGNVRNLSVKIRECTGLAWEWWRTVYEKTDLPLVRKRTISIWGTTLYPQVEDKVEND | binds
2 | pneumolysin point mutant T304R (natural protein, Streptococcus pneumoniae, UniProt Q04IN8 1-471, looked up, pneumolysin (PLY), Streptococcus pneumoniae, with T304R in domain 3; also called PLY T304R; source: purified) MANKAVNDFILAMNYDKKKLLTHQGESIENRFIKEGNQLPDEFVVIERKKRSLSTNTSDISVTATNDSRLYPGALLVVDETLLENNPTLLAVDRAPMTYSIDLPGLASSDSFLQVEDPSNSSVRGAVNDLLAKWHQDYGQVNNVPARMQYEKITAHSMEQLKVKFGSDFEKTGNSLDIDFNSVHSGEKQIQIVNFKQIYYTVSVDAVKNPGDVFQDTVTVEDLKQRGISAERPLVYISSVAYGRQVYLKLETTSKSDEVEAAFEALIKGVKVAPQTEWKQILDNTEVKAVILGGDPSSGARVVRGKVDMVEDLIQEGSRFTADHPGLPISYTTSFLRDNVVATFQNSTDYVETKVTAYRNGDLLLDHSGAYVAQYYITWDELSYDHQGKEVLTPKAWDRNGQDLTAHFTTSIPLKGNVRNLSVKIRECTGLAWEWWRTVYEKTDLPLVRKRTISIWGTTLYPQVEDKVEND | binds

— PMC7067851, “Formation of pre-pore complexes of pneumolysin is accompanied by a decrease in short-range order of lipid molecules throughout vesicle bilayers” (Scientific Reports, 2020)
